Publication PMC10397247

Columns and labels:
Assay in all cases: two-hybrid library CCNG1;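 also: natural log of median RNA to DNA barcode read ratio; higher means stronger binding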
4H1257-bH = target: T1, 4H1257-bH
T1 chain: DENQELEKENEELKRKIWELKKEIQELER

4H1446-bH = target: T2, 4H1446-bH
T2 chain: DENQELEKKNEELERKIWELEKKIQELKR

4H1828-bH = target: T3, 4H1828-bH
T3 chain: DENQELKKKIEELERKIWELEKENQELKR

4H1845-bH = target: T4, 4H1845-bH
T4 chain: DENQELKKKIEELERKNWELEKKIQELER

4H2442-bH = target: T5, 4H2442-bH
T5 chain: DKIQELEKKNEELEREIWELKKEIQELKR

4H2576-bH = target: T6, 4H2576-bH
T6 chain: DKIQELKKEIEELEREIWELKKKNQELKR

4H2618-bH = target: T7, 4H2618-bH
T7 chain: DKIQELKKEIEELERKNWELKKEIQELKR

4H2667-bH = target: T8, 4H2667-bH
T8 chain: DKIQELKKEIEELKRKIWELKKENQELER

4H2729-bH = target: T9, 4H2729-bH
T9 chain: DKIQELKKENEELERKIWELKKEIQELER

4H3112-bH = target: T10, 4H3112-bH
T10 chain: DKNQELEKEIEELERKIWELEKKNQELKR

4H3185-bH = target: T11, 4H3185-bH
T11 chain: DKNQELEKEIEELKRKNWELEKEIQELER

4H331-bH = target: T12, 4H331-bH
T12 chain: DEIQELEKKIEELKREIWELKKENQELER

4H3354-bH = target: T13, 4H3354-bH
T13 chain: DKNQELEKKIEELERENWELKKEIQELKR

4H338-bH = target: T14, 4H338-bH
T14 chain: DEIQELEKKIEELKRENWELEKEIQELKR

4H3381-bN = target: T15, 4H3381-bN
T15 chain: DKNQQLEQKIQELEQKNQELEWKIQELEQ

4H3427-bH = target: T16, 4H3427-bH
T16 chain: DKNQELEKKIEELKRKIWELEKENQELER

4H3782-bH = target: T17, 4H3782-bH
T17 chain: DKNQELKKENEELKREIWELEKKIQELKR

4H3855-bH = target: T18, 4H3855-bH
T18 chain: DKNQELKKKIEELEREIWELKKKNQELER

4H4001-bH = target: T19, 4H4001-bH
T19 chain: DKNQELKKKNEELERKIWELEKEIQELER

4H454-bH = target: T20, 4H454-bH
T20 chain: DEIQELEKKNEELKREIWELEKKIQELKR

4H568-bH = target: T21, 4H568-bH
T21 chain: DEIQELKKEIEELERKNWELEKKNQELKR

4H607-bH = target: T22, 4H607-bH
T22 chain: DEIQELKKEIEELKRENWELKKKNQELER

4H687-bH = target: T23, 4H687-bH
T23 chain: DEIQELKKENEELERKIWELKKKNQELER

4H717-bH = target: T24, 4H717-bH
T24 chain: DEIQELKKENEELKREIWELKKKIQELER

4H72-bH = target: T25, 4H72-bH
T25 chain: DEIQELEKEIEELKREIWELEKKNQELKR

4H754-bH = target: T26, 4H754-bH
T26 chain: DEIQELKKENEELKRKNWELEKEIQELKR

4H797-bH = target: T27, 4H797-bH
T27 chain: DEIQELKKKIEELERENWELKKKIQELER

4H883-bH = target: T28, 4H883-bH
T28 chain: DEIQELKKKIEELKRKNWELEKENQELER

4H908-bH = target: T29, 4H908-bH
T29 chain: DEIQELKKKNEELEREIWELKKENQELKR

4H918-bH = target: T30, 4H918-bH
T30 chain: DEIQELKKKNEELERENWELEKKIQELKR

4H953-bH = target: T31, 4H953-bH
T31 chain: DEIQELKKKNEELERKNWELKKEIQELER

4H967-bH = target: T32, 4H967-bH
T32 chain: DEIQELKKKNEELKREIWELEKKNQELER

## DENQELEKENEELKRKIWELKKEIQELER [4H1257-bH]
4H1257-bH
  interaction score: -1.44
4H1446-bH
  interaction score: -0.833
4H1828-bH
  interaction score: -0.108
4H1845-bH
  interaction score: -1.83
4H2442-bH
  interaction score: -0.172
4H2576-bH
  interaction score: 0.394
4H2618-bH
  interaction score: 0.0958
4H2667-bH
  interaction score: -0.837
4H2729-bH
  interaction score: 0.0373
4H3112-bH
  interaction score: -0.383
4H3185-bH
  interaction score: -0.808
4H331-bH
  interaction score: -0.435
4H3354-bH
  interaction score: -0.79
4H338-bH
  interaction score: -0.528
4H3381-bN
  interaction score: -0.693
4H3427-bH
  interaction score: 0.386
4H3782-bH
  interaction score: 0.911
4H3855-bH
  interaction score: -0.288
4H4001-bH
  interaction score: -0.377
4H454-bH
  interaction score: 1.26
4H568-bH
  interaction score: -0.399
4H607-bH
  interaction score: -0.218
4H687-bH
  interaction score: 0.172
4H717-bH
  interaction score: -0.541
4H72-bH
  interaction score: -2.61
4H754-bH
  interaction score: -0.282
4H797-bH
  interaction score: -0.73
4H883-bH
  interaction score: 0.223
4H908-bH
  interaction score: -0.669
4H918-bH
  interaction score: 0.00985
4H953-bH
  interaction score: -0.825
4H967-bH
  interaction score: -1.63
